In publication PMC12311895 (2025):
Where no end group is shown, it is not given here.

Biological target: T1, MBP-PDZ protein (Erbin PDZ) with a single cysteine, conjugated to DNA (UniProt Q96RT1 1321-1410, ATTO 532 (labelled with ATTO 532-NHS); amine-modified DNA oligonucleotide coupled through sulfo-SMCC to the single cysteine between MBP and PDZ)
T1 chain: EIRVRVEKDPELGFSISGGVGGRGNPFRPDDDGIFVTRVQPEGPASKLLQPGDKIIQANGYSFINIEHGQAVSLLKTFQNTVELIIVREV
Assay: FP; no DNA attached to MBP-PDZ

B1: ATTO 655-labeled target peptide (peptide)
chain: CGAGRGSIDTWV
modifications: also: ATTO 655 label (site not given here)
- Kd: 200 nM
